# IntAct's records for PubMed 38225382
# B1: Peroxisomal biogenesis factor 19 (Homo sapiens), P40855 (parent)
# chain: MAAAEEGCSVGAEADRELEELLESALDDFDKAKPSPAPPSTTTAPDASGPQKRSPGDTAKDALFASQEKFFQELFDSELASQATAEFEKAMKELAEEEPHLVEQFQKLSEAAGRVGSDMTSQQEFTSCLKETLSGLAKNATDLQNSSMSEEELTKAMEGLGMDEGDGEGNILPIMQSIMQNLLSKDVLYPSLKEITEKYPEWLQSHRESLPPEQFEKYQEQHSVMCKICEQFEAETPTDSETTQKARFEMVLDLMQQLQDLGHPPKELAGEMPPGLNFDLDALNLSGPPGASGEQCLIM
# B2: Peroxisomal biogenesis factor 3 (Homo sapiens), P56589 (parent)
# chain: MLRSVWNFLKRHKKKCIFLGTVLGGVYILGKYGQKKIREIQEREAAEYIAQARRQYHFESNQRTCNMTVLSMLPTLREALMQQLNSESLTALLKNRPSNKLEIWEDLKIISFTRSTVAVYSTCMLVVLLRVQLNIIGGYIYLDNAAVGKNGTTILAPPDVQQQYLSSIQHLLGDGLTELITVIKQAVQKVLGSVSLKHSLSLLDLEQKLKEIRNLVEQHKSSSWINKDGSKPLLCHYMMPDEETPLAVQACGLSPRDITTIKLLNETRDMLESPDFSTVLNTCLNRGFSRLLDNMAEFFRPTEQDLQHGNSMNSLSSVSLPLAKIIPIVNGQIHSVCSETPSHFVQDLLTMEQVKDFAANVYEAFSTPQQLEK
# partner: B1 chain
# B3: Host cell factor 1 (Homo sapiens), P51610-3 (parent)
# chain: MASAVSPANLPAVLLQPRWKRVVGWSGPVPRPRHGHRAVAIKELIVVFGGGNEGIVDELHVYNTATNQWFIPAVRGDIPPGCAAYGFVCDGTRLLVFGGMVEYGKYSNDLYELQASRWEWKRLKAKTPKNGPPPCPRLGHSFSLVGNKCYLFGGLANDSEDPKNNIPRYLNDLYILELRPGSGVVAWDIPITYGVLPPPRESHTAVVYTEKDNKKSKLVIYGGMSGCRLGDLWTLDIDTLTWNKPSLSGVAPLPRSLHSATTIGNKMYVFGGWVPLVMDDVKVATHEKEWKCTNTLACLNLDTMAWETILMDTLEDNIPRARAGHCAVAINTRLYIWSGRDGYRKAWNNQVCCKDLWYLETEKPPPPARVQLVRANTNSLEVSWGAVATADSYLLQLQKYDIPATAATATSPTPNPVPSVPANPPKSL
# partner: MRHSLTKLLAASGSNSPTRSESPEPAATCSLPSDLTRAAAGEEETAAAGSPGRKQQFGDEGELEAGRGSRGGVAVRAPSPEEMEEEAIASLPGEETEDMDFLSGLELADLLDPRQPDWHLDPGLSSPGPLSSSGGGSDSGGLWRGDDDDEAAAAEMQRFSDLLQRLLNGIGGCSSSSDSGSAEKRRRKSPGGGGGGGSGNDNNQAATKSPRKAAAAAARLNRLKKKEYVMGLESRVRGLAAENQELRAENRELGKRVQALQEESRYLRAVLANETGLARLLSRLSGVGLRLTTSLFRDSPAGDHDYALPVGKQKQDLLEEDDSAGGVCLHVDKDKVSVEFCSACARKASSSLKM
# B4: Estrogen-related receptor gamma (Homo sapiens), P62508-3 (parent)
# chain: MSNKDRHIDSSCSSFIKTEPSSPASLTDSVNHHSPGGSSDASGSYSSTMNGHQNGLDSPPLYPSAPILGGSGPVRKLYDDCSSTIVEDPQTKCEYMLNSMPKRLCLVCGDIASGYHYGVASCEACKAFFKRTIQGNIEYSCPATNECEITKRRRKSCQACRFMKCLKVGMLKEGVRLDRVRGGRQKYKRRIDAENSPYLNPQLVQPAKKPLLWSDPADNKIVSHLLVAEPEKIYAMPDPTVPDSDIKALTTLCDLADRELVVIIGWAKHIPGFSTLSLADQMSLLQSAWMEILILGVVYRSLSFEDELVYADDYIMDEDQSKLAGLLDLNNAILQLVKKYKSMKLEKEEFVTLKAIALANSDSMHIEDVEAVQKLQDVLHEALQDYEAGQHMEDPRRAGKMLMTLPLLRQTSTKAVQHFYNIKLEGKVPMHKLFLEMLEAKV
# Variants of: B1
# Conditions: with pex3_human PEX3, P56589
row,Variant,effect of a mutation on the interaction
1,MAAAEEGCSVGAEADRELEELLESALDDKDKAKPSPAPPSTTTAPDASGPQKRSPGDTAKDALFASQEKFFQELFDSELASQATAEFEKAMKELAEEEPHLVEQFQKLSEAAGRVGSDMTSQQEFTSCLKETLSGLAKNATDLQNSSMSEEELTKAMEGLGMDEGDGEGNILPIMQSIMQNLLSKDVLYPSLKEITEKYPEWLQSHRESLPPEQFEKYQEQHSVMCKICEQFEAETPTDSETTQKARFEMVLDLMQQLQDLGHPPKELAGEMPPGLNFDLDALNLSGPPGASGEQCLIM [F29K],decreasing interaction strength

# Variants of: B2
# Conditions: with pex19_human PEX19, P40855
row,Variant,effect of a mutation on the interaction
1,MLRSVWNFLKRHKKKCIFLGTVLGGVYILGKYGQKKIREIQEREAAEYIAQARRQYHFESNQRTCNMTVLSMLPTLREALMQQLNSESLQALLKNRPSNKLEIWEDLKIISFTRSTVAVYSTCMLVVLLRVQLNIIGGYIYLDNAAVGKNGTTILAPPDVQQQYLSSIQHLLGDGLTELITVIKQAVQKVLGSVSLKHSLSLLDLEQKLKEIRNLVEQHKSSSWINKDGSKPLLCHYMMPDEETPLAVQACGLSPRDITTIKLLNETRDMLESPDFSTVLNTCLNRGFSRLLDNMAEFFRPTEQDLQHGNSMNSLSSVSLPLAKIIPIVNGQIHSVCSETPSHFVQDLLTMEQVKDFAANVYEAFSTPQQLEK [T90Q],with no effect
2,MLRSVWNFLKRHKKKCIFLGTVLGGVYILGKYGQKKIREIQEREAAEYIAQARSQYHFESNQRTCNMTVLSMLPTLREALMQQLNSESLTALLKNRPSNKLEIWEDLKIISFTRSTVAVYSTCMLVVLLRVQLNIIGGYIYLDNAAVGKNGTTILAPPDVQQQYLSSIQHLLGDGLTELITVIKQAVQKVLGSVSLKHSLSLLDLEQKLKEIRNLVEQHKSSSWINKDGSKPLLCHYMMPDEETPLAVQACGLSPRDITTIKLLNETRDMLESPDFSTVLNTCLNRGFSRLLDNMAEFFRPTEQDLQHGNSMNSLSSVSLPLAKIIPIVNGQIHSVCSETPSHFVQDLLTMEQVKDFAANVYEAFSTPQQLEK [R54S],with no effect
3,MLRSVWNFLKRHKKKCIFLGTVLGGVYILGKYGQKKIREIQEREAAEYIAQARRQYHFESNQRTCNMTVLSMLPTLREALMQQLNSESLTALLKNRPSNKLEIWEDLKIISFTRSTVAVYSTCMLVVLLRVQLNIIGGYIYLDNAAVGKNGTTILAPPDVQQQYLSSIQHLLGDGLTELITVIKQAVQKVLGSVSLKHSLSLLDLEQKLKEIRNLVEQHKSSSWINKDGSKPLLCHYMMPDEETPLAVQACGLSPRDITTIKLLNETRDMLRSPDFSTVLNTCLNRGFSRLLDNMAEFFRPTEQDLQHGNSMNSLSSVSLPLAKIIPIVNGQIHSVCSETPSHFVQDLLTMEQVKDFAANVYEAFSTPQQLEK [E272R],with no effect

# Variants of: B3
# Conditions: with zhang_human CREBZF
row,Variant,effect of a mutation on the interaction
1,MASAVSPANLPAVLLQPRWKRVVGWSGPVPRPRHGHRAVAIKELIVVFGGGNEGIVDELHVYNTATNQWFIPAVRGDIPPGCAAYGFVCDGTRLLVFGGMVEYGKYSNDLYELQASRWEWKRLKAKTPKNGPPPCPRFGHSFSLVGNKCYLFGGLANDSEDPKNNIPRYLNDLYILELRPGSGVVAWDIPITYGVLPPPRESHTAVVYTEKDNKKSKLVIYGGMSGCRLGDLWTLDIDTLTWNKPSLSGVAPLPRSLHSATTIGNKMYVFGGWVPLVMDDVKVATHEKEWKCTNTLACLNLDTMAWETILMDTLEDNIPRARAGHCAVAINTRLYIWSGRDGYRKAWNNQVCCKDLWYLETEKPPPPARVQLVRANTNSLEVSWGAVATADSYLLQLQKYDIPATAATATSPTPNPVPSVPANPPKSL [L138F],decreasing interaction strength
2,MASAVSPANLPAVLLQPRWKRVVGWSGPVPRPRHGHRAVAIKELIVVFGGGNEGIVDELHVYNTATNQWFIPAVRGDIPPGCAAYGFVCDGTRLLVFGGMVEYGKYSNDLYELQASRWEWKRLKAKTPKNGPPPCPRLGHSFSLVGNKCYLFGGLANDSEDPKNNIPRYLNDLYILELRPGSGVVAWDIPITYGVLPPPRESHTAVVYTEKDNKKSKLVIYGGMNGCRLGDLWTLDIDTLTWNKPSLSGVAPLPRSLHSATTIGNKMYVFGGWVPLVMDDVKVATHEKEWKCTNTLACLNLDTMAWETILMDTLEDNIPRARAGHCAVAINTRLYIWSGRDGYRKAWNNQVCCKDLWYLETEKPPPPARVQLVRANTNSLEVSWGAVATADSYLLQLQKYDIPATAATATSPTPNPVPSVPANPPKSL [S225N],with no effect
3,MASAVSPANLPAVLLQPRWKRVVGWSGPVPRPRHGHRAVAIKELIVVFGGGNEGIVDELHVYNTATNQWFIPAVRGDIPPGCAAYGFVCDGTRLLVFGGMVEYGKYSNDLYELQASRWEWKRLKAKTPKNGPPPCPRLGHSFSLVGNKCYLFGGLANDSEDPKNNIPRYLNDLYILELRPGSGVVAWDIPITYGVLPPPRESHTAVVYTEKDNKKSKLVIYGGMSGCRLGDLWTLDIDTLTWNKPSLSGVAPLPRSFHSATTIGNKMYVFGGWVPLVMDDVKVATHEKEWKCTNTLACLNLDTMAWETILMDTLEDNIPRARAGHCAVAINTRLYIWSGRDGYRKAWNNQVCCKDLWYLETEKPPPPARVQLVRANTNSLEVSWGAVATADSYLLQLQKYDIPATAATATSPTPNPVPSVPANPPKSL [L257F],decreasing interaction strength

# Variants of: B4
# Conditions: with prs8_human PSMC5, P62195
# prs8_human PSMC5, P62195, sequence (P62195 whole entry): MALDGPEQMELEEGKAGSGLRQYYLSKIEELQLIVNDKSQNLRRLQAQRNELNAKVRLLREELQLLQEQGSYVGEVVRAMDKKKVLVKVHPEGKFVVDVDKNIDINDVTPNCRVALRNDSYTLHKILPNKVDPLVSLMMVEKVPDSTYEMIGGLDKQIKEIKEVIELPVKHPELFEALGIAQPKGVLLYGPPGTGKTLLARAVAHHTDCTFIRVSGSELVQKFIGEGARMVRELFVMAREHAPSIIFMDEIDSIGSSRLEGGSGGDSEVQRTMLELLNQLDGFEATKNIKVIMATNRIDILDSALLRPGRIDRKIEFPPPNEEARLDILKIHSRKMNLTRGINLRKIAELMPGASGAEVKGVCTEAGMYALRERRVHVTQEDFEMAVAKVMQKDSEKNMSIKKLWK
row,Variant,effect of a mutation on the interaction
1,MSNKDRHIDSSCSSFIKTEPSSPASLTDSVNHHSPGGSSDASGSYSSTMNGHQNGLDSPPLYPSAPILGGSGPVRKLYDDCSSTIVEDPQTKCEYMLNSMPKRLCLVCGDIASGYHYGVASCEACKAFFKRTIQGNIEYSCPATNECEITKRRRKSCQACRFMKCLKVGMLKEGVRLDRVRGGRQKYKRRIDAENSPYLNPQLVQPAKKPLLWSDPADNKIVSHLLVAEPEKIYAMPDPTVPDSDIKALTTLCDLADRELVVIEGWAKHIPGFSTLSLADQMSLLQSAWMEILILGVVYRSLSFEDELVYADDYIMDEDQSKLAGLLDLNNAILQLVKKYKSMKLEKEEFVTLKAIALANSDSMHIEDVEAVQKLQDVLHEALQDYEAGQHMEDPRRAGKMLMTLPLLRQTSTKAVQHFYNIKLEGKVPMHKLFLEMLEAKV [I264E],decreasing interaction strength
2,MSNKDRHIDSSCSSFIKTEPSSPASLTDSVNHHSPGGSSDASGSYSSTMNGHQNGLDSPPLYPSAPILGGSGPVRKLYDDCSSTIVEDPQTKCEYMLNSMPKRLCLVCGDIASGYHYGVASCEACKAFFKRTIQGNIEYSCPATNECEITKRRRKSCQACRFMKCLKVGMLKEGVRLDRVRGGRQKYKRRIDAENSPYLNPQLVQPAKKPLLWSDPADNKIVSHLLVAEPEKIYAMPDPTVPDSDIKALTTLCDLADRELVVIIGWAKHIPGFSTLSLADQMSLLQSAWMEILILGVVYRSLSFEDELVYADDYIMDEDQSKLAGLLDLNNAILQLVKKYKSMKLEKEEFVTLKAIALANSDSMHIEDVEAVQKLQDVLHEALQDYEAGQHMEDPRRAGKMLMTLPLLRQTSTKAVQHFYNIKLEGKVPMHKLFLEFLEAKV [M437F],decreasing interaction strength
